To fix the notation:
B1: glmS ribozyme (parent)
chain: AUAAAAGCGCCAGAACUACAGAAAUGUAGUUGACGAGGAGGAGGUUUAUCGAAUUUUCGGCGGAUGCCUCCAAA

Conditions in all cases: with glucosamine-6-phosphate
The variants in data set [1] derive from B1. As to the kind of experiment: kcat; higher = faster cleavage; RNA array. The essentials:
(§1)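 Barcoded ribozyme variants were transcribed in situ on sequenced MiSeq chips by E. coli RNA polymerase. At 37 °C, a hybridised Cy3 probe tracked them while glucosamine-6-phosphate (40 μM to 10 mM) in HEPES/KCl/Mg(OAc)2 buffer flowed in and tiles were imaged over ~14 h. Per-tile medians of signals normalised to baseline and to non-cleaving reference variants were fit to one- or two-exponential decays, giving kobs. kcat and KM came from weighted Michaelis–Menten fits across concentrations.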

In data set [2] the parent is B1. As to the kind of experiment: KM; higher = weaker cofactor use; RNA array. Summed up: as §1
The variants in data set [3] derive from B1. As to the kind of experiment: self-cleavage kobs at 160 uM GlcN6P; higher = faster cleavage; RNA array. The essentials:
as §1

Variants of B1 are the subject of data set [4]. As to the kind of experiment: self-cleavage kobs at 2500 uM GlcN6P; higher = faster cleavage; RNA array. The essentials:
as §1

The variants in data set [5] derive from B1. As to the kind of experiment: self-cleavage kobs at 10000 uM GlcN6P; higher = faster cleavage; RNA array. The essentials: as §1
Data set [6] covers variants of B1. As to the kind of experiment: self-cleavage kobs at 640 uM GlcN6P; higher = faster cleavage; RNA array. The essentials:
as §1

Data set [7] covers variants of B1. As to the kind of experiment: self-cleavage kobs at 40 uM GlcN6P; higher = faster cleavage; RNA array. The essentials: as §1

The values that follow come from the supplement of paper PMC7125110.

± gives the standard error. For some of these results: This sample holds only a part of the variants without activity. A value given as a limit tells only on which side of the number the result lay.

Regarding A53G G66C, the kcat (usually the maximal rate divided by the concentration of active sites) in the data set with glucosamine-6-phosphate [1] amounted to 0.000985 ± 5.6e-05 s⁻¹. In addition, in the data set with glucosamine-6-phosphate [2], the KM (in general, the substrate concentration at which the rate is half of its maximum) came to 1230 ± 190 µM. Also, the “self-cleavage kobs at 160 uM GlcN6P” value with glucosamine-6-phosphate [3] came out at 0.000121 ± 5e-05 s⁻¹. In addition, the “self-cleavage kobs at 2500 uM GlcN6P” value with glucosamine-6-phosphate [4] came out at 0.000619 ± 0.00014 s⁻¹. Further, the “self-cleavage kobs at 10000 uM GlcN6P” value in the data set with glucosamine-6-phosphate [5] was found to be 0.000909 ± 0.00017 s⁻¹.
Consider G9C G60A, for which the kcat in the data set with glucosamine-6-phosphate [1] is below 1e-05 s⁻¹. The “self-cleavage kobs at 640 uM GlcN6P” value in the data set with glucosamine-6-phosphate [6] is below 1e-05 s⁻¹.
As for A15U G40U, the kcat in the data set with glucosamine-6-phosphate [1] stood at 0.000328 ± 7.5e-05 s⁻¹. Further, the “self-cleavage kobs at 160 uM GlcN6P” value with glucosamine-6-phosphate [3] was found to be 2.65e-05 ± 1.3e-05 s⁻¹. In the data set with glucosamine-6-phosphate [6], the “self-cleavage kobs at 640 uM GlcN6P” value stood at 0.000117 ± 2.2e-05 s⁻¹. The “self-cleavage kobs at 2500 uM GlcN6P” value with glucosamine-6-phosphate [4] was 0.000447 ± 6.9e-05 s⁻¹. The “self-cleavage kobs at 10000 uM GlcN6P” value in the data set with glucosamine-6-phosphate [5] is 0.000273 ± 2.8e-05 s⁻¹.
Regarding U47G C50G C68U, the kcat in the data set with glucosamine-6-phosphate [1] stood at 6.02e-05 ± 2e-05 s⁻¹. For the same variant, the “self-cleavage kobs at 160 uM GlcN6P” value with glucosamine-6-phosphate [3] amounted to 7.17e-05 ± 9.5e-06 s⁻¹. The “self-cleavage kobs at 2500 uM GlcN6P” value in the data set with glucosamine-6-phosphate [4] came to 7.59e-05 ± 1.6e-05 s⁻¹. Besides, the “self-cleavage kobs at 10000 uM GlcN6P” value with glucosamine-6-phosphate [5] turned out to be 3.03e-05 ± 1.3e-05 s⁻¹.
Regarding G32U G66C, the kcat with glucosamine-6-phosphate [1] was 5.37e-05 ± 2.7e-06 s⁻¹. For the same variant, the KM in the data set with glucosamine-6-phosphate [2] was found to be 7240 ± 850 µM. The “self-cleavage kobs at 40 uM GlcN6P” value in the data set with glucosamine-6-phosphate [7] is below 1e-05 s⁻¹. Moreover, in the data set with glucosamine-6-phosphate [5], the “self-cleavage kobs at 10000 uM GlcN6P” value was determined as 3.11e-05 ± 1.2e-05 s⁻¹.
On to U30C U46A, for which the kcat with glucosamine-6-phosphate [1] turned out to be 1.46e-05 ± 6.8e-06 s⁻¹. The “self-cleavage kobs at 40 uM GlcN6P” value with glucosamine-6-phosphate [7] is below 1e-05 s⁻¹.
Take U46G A53C: the kcat with glucosamine-6-phosphate [1] was found to be 0.00122 ± 6.4e-05 s⁻¹. For the same variant, in the data set with glucosamine-6-phosphate [2], the KM was 2790 ± 250 µM. For the same variant, the “self-cleavage kobs at 160 uM GlcN6P” value in the data set with glucosamine-6-phosphate [3] came out at 5.96e-05 ± 1.8e-05 s⁻¹. Moreover, the “self-cleavage kobs at 640 uM GlcN6P” value in the data set with glucosamine-6-phosphate [6] was determined as 0.000231 ± 4.3e-05 s⁻¹. Also, in the data set with glucosamine-6-phosphate [4], the “self-cleavage kobs at 2500 uM GlcN6P” value amounted to 0.000609 ± 9.9e-05 s⁻¹. Also, the “self-cleavage kobs at 10000 uM GlcN6P” value with glucosamine-6-phosphate [5] amounted to 0.000938 ± 0.00012 s⁻¹.
As for U47C C58G, in the data set with glucosamine-6-phosphate [1], the kcat is 6.37e-05 ± 7.3e-07 s⁻¹. For the same variant, the KM with glucosamine-6-phosphate [2] stood at 2170 ± 92 µM. Moreover, in the data set with glucosamine-6-phosphate [4], the “self-cleavage kobs at 2500 uM GlcN6P” value amounted to 3.41e-05 ± 1.1e-05 s⁻¹. The “self-cleavage kobs at 10000 uM GlcN6P” value with glucosamine-6-phosphate [5] was 5.23e-05 ± 7.5e-06 s⁻¹.
Regarding C10A G51U C68G, the kcat with glucosamine-6-phosphate [1] turned out to be 4.94e-05 ± 1.5e-05 s⁻¹. Besides, the “self-cleavage kobs at 40 uM GlcN6P” value with glucosamine-6-phosphate [7] was 3.72e-05 ± 1.7e-05 s⁻¹. For the same variant, the “self-cleavage kobs at 160 uM GlcN6P” value with glucosamine-6-phosphate [3] was 5.32e-05 ± 2.5e-05 s⁻¹. Also, the “self-cleavage kobs at 640 uM GlcN6P” value with glucosamine-6-phosphate [6] came to 9.82e-05 ± 3.2e-05 s⁻¹. The “self-cleavage kobs at 10000 uM GlcN6P” value with glucosamine-6-phosphate [5] amounted to 3.4e-05 ± 1.6e-05 s⁻¹.
U54C U57C: the kcat with glucosamine-6-phosphate [1] worked out at 0.000143 ± 2e-05 s⁻¹. In addition, the KM with glucosamine-6-phosphate [2] turned out to be 3450 ± 1100 µM. Besides, in the data set with glucosamine-6-phosphate [4], the “self-cleavage kobs at 2500 uM GlcN6P” value worked out at 6.28e-05 ± 1.1e-05 s⁻¹. Further, the “self-cleavage kobs at 10000 uM GlcN6P” value with glucosamine-6-phosphate [5] came to 0.000105 ± 1.6e-05 s⁻¹.
On to C50U U57A G59C U65A C70U, for which the kcat with glucosamine-6-phosphate [1] turned out to be 2.56e-05 ± 4.5e-06 s⁻¹. Further, the KM in the data set with glucosamine-6-phosphate [2] turned out to be 293 ± 140 µM. The “self-cleavage kobs at 40 uM GlcN6P” value with glucosamine-6-phosphate [7] is below 1e-05 s⁻¹. Moreover, the “self-cleavage kobs at 10000 uM GlcN6P” value with glucosamine-6-phosphate [5] is below 1e-05 s⁻¹.
With U65C C70G, the kcat with glucosamine-6-phosphate [1] was 1.37e-05 ± 3.9e-06 s⁻¹.
For the variant G43U A73U, the kcat with glucosamine-6-phosphate [1] was determined as 4.34e-05 ± 8.8e-06 s⁻¹. In addition, in the data set with glucosamine-6-phosphate [4], the “self-cleavage kobs at 2500 uM GlcN6P” value worked out at 4.73e-05 ± 2.1e-05 s⁻¹. Besides, the “self-cleavage kobs at 10000 uM GlcN6P” value with glucosamine-6-phosphate [5] was 3.88e-05 ± 1e-05 s⁻¹.
Turning to G13A G29C, in the data set with glucosamine-6-phosphate [1], the kcat turned out to be 0.00011 ± 4.9e-06 s⁻¹. Besides, the KM in the data set with glucosamine-6-phosphate [2] is 1990 ± 240 µM. Moreover, in the data set with glucosamine-6-phosphate [4], the “self-cleavage kobs at 2500 uM GlcN6P” value stood at 5.98e-05 ± 1.3e-05 s⁻¹. Also, the “self-cleavage kobs at 10000 uM GlcN6P” value with glucosamine-6-phosphate [5] worked out at 9.3e-05 ± 1.7e-05 s⁻¹.
As for U46G U55A, the kcat with glucosamine-6-phosphate [1] was found to be 0.0163 ± 0.0061 s⁻¹. Moreover, the “self-cleavage kobs at 40 uM GlcN6P” value in the data set with glucosamine-6-phosphate [7] was found to be 0.000166 ± 3.9e-05 s⁻¹. Further, in the data set with glucosamine-6-phosphate [6], the “self-cleavage kobs at 640 uM GlcN6P” value was determined as 0.0028 ± 0.00069 s⁻¹. Further, the “self-cleavage kobs at 2500 uM GlcN6P” value with glucosamine-6-phosphate [4] was found to be 0.00456 ± 0.0013 s⁻¹. For the same variant, the “self-cleavage kobs at 10000 uM GlcN6P” value with glucosamine-6-phosphate [5] stood at 0.0133 ± 0.0027 s⁻¹.
For G40C U56G, the kcat with glucosamine-6-phosphate [1] was 0.00124 ± 0.00014 s⁻¹. Moreover, in the data set with glucosamine-6-phosphate [2], the KM is 1460 ± 280 µM. The “self-cleavage kobs at 40 uM GlcN6P” value in the data set with glucosamine-6-phosphate [7] came out at 3.52e-05 ± 6.5e-06 s⁻¹. The “self-cleavage kobs at 160 uM GlcN6P” value in the data set with glucosamine-6-phosphate [3] came to 0.000146 ± 2.1e-05 s⁻¹. For the same variant, in the data set with glucosamine-6-phosphate [6], the “self-cleavage kobs at 640 uM GlcN6P” value came to 0.000333 ± 3.5e-05 s⁻¹. Further, the “self-cleavage kobs at 2500 uM GlcN6P” value with glucosamine-6-phosphate [4] came out at 0.000869 ± 0.00011 s⁻¹. The “self-cleavage kobs at 10000 uM GlcN6P” value with glucosamine-6-phosphate [5] amounted to 0.00108 ± 9.7e-05 s⁻¹.
As for A52G C58G, the kcat in the data set with glucosamine-6-phosphate [1] was 1.7e-05 ± 1.7e-06 s⁻¹.
Turning to G7A C50A, the kcat in the data set with glucosamine-6-phosphate [1] is below 1e-05 s⁻¹. Moreover, the “self-cleavage kobs at 40 uM GlcN6P” value with glucosamine-6-phosphate [7] was below 1e-05 s⁻¹. In the data set with glucosamine-6-phosphate [3], the “self-cleavage kobs at 160 uM GlcN6P” value is below 1e-05 s⁻¹. For the same variant, in the data set with glucosamine-6-phosphate [4], the “self-cleavage kobs at 2500 uM GlcN6P” value is below 1e-05 s⁻¹.
For the variant G43U U55C, the kcat in the data set with glucosamine-6-phosphate [1] came out at 3.2e-05 ± 2.4e-06 s⁻¹. For the same variant, in the data set with glucosamine-6-phosphate [4], the “self-cleavage kobs at 2500 uM GlcN6P” value was determined as 3.2e-05 ± 1.2e-05 s⁻¹. For the same variant, in the data set with glucosamine-6-phosphate [5], the “self-cleavage kobs at 10000 uM GlcN6P” value came out at 3.01e-05 ± 8.7e-06 s⁻¹.
